This note sets out measurements from patent publication US20260193669A1 (NYKODE THERAPEUTICS ASA, published 2026).

This data set concerns the molecule itself. Kind of data set: blue native PAGE and Western blot of supernatant, Motavizumab detection; self-assembly. (Immunoblotting shows a protein as a band on a membrane.)

B1: Single chain PreF protein and ferritin (further polypeptide of DNA plasmids IV082 and IV084; also encoded alone by IV080) (other)
chain: QNITEEFYQSTCSAVSKGYLSALRTGWYTSVITIELSNIKENKCNGTDAKVKLIKQELDKYKNAVTELQLLMGSGNVGLGGAIASGVAVCKVLHLEGEVNKIKSALLSTNKAVVSLSNGVSVLTFKVLDLKNYIDKQLLPILNKQSCSISNIETVIEFQQKNNRLLEITREFSVNAGVTTPVSTYMLTNSELLSLINDMPITNDQKKLMSNNVQIVRQQSYSIMCIIKEEVLAYVVQLPLYGVIDTPCWKLHTSPLCTTNTKEGSNICLTRTDRGWYCDNAGSVSFFPQAETCKVQSNRVFCDTMNSRTLPSEVNLCNVDIFNPKYDCKIMTSKTDVSSSVITSLGAIVSCYGKTKCTASNKNRGIIKTFSNGCDYVSNKGVDTVSVGNTLYYVNKQEGKSLYVKGEPIINFYDPLVFPSDEFDASISQVNEKINQSLAFIRKSDELLSGGSSGSSGGSDIIKLLNEQVNKEMQSSNLYMSMSSWCYTHSLDGAGLFLFDHAAEEYEHAKKLIIFLNENNVPVQLTSISAPEHKFEGLTQIFQKAYEHEQHISESINNIVDHAIKCKDHATFNFLQWYVAEQHEEEVLFKDILDKIELIGNENHGLYLADQYVKGIAKSRKSGS
notes: Secreted into supernatant of Expi293F cells; 24-mer by native PAGE; also called further polypeptide (PreF protein)-ferritin nanoparticles, IV082 and IV084
Turning to B1, the binding result is listed as “binds”.

B2: PreF protein and ferritin (further polypeptide of DNA plasmids IV083 and IV085; also encoded alone by IV081) (other)
chain: QNITEEFYQSTCSAVSKGYLSALRTGWYTSVITIELSNIKENKCNGTDAKVKLIKQELDKYKNAVTELQLLMGSGNVGLGGAIASGVAVSKVLHLEGEVNKIKSALLSTNKAVVSLSNGVSVLTFKVLDLKNYIDKQLLPILNKQSCSISNPETVIEFQQKNNRLLEITREFSVNAGVTTPVSTYMLTNSELLSLINDMPITNDQKKLMSNNVQIVRQQSYSIMSIIKEEVLAYVVQLPLYGVIDTPCWKLHTSPLCTTNTKNGSNICLTRTDRGWYCDNAGNVSFFPQAETCKVQSNRVFCDTMNSRTLPSEVNLCNVDIFNPKYDCKIMTSKTDVSSSVITSLGAIVSCYGKTKCTASNKNRGIIKTFSNGCDYVSNKGVDTVSVGNTLYYVNKQEGKSLYVKGEPIINFYDPLVFPSDEFDASISQVNEKINQSLAFINKSDELLSGSGSESQVRQQFSKDIEKLLNEQVNKEMQSSNLYMSMSSWSYTHSLDGAGLFLFDHAAEEYEHAKKLIIFLNENNVPVQLTSISAPEHCFEGLTQIFQKAYEHEQHISESINNIVDHAIKSKDHATFNFLQWYVAEQHEEEVLFKDILDKIELIGNENHGLYLADQYVKGIAKSRKS
notes: Secreted into supernatant of Expi293F cells; 24-mer by native PAGE; also called further polypeptide (PreF protein)-ferritin nanoparticles, IV083 and IV085
With B2, the binding result is on record as “binds”.
